{"source": "paper PMC9984531", "about": "“Cryo-EM structure of human heptameric pannexin 2 channel” (Nature Communications, 2023)", "target": "the molecule itself", "assay": "cryo-EM structure; single-particle cryo-EM of purified Panx2-NT (Superose 6 peak at 16.0 ml), 50 mM Tris pH 7.5, 150 mM NaCl, 0.02% GDN, ~10 mg/ml; C1 map without imposed symmetry, final refinement with C7 symmetry at ~3.4 Å"}
{"protein": "human pannexin 2 N-terminal domain (Panx2-NT, amino acids 1-410) (domain or fragment, UniProt Q96RD6-3 1-410, looked up, N-glycosylated on N86 (extra density observed near N86), Pannexin 2 (PANX2), H. sapiens, NCBI NP_443071.2, 677 residues in full; construct Panx2-NT holds amino acids 1-410, made to mimic the caspase-cleaved truncation; the model holds residues 41-184, 188-266, 273-373 and 377-388; also called C-terminal truncated Panx2; human N-terminal Panx2; source: HEK293F, transient transfection (PEI), purified (DDM solubilisation, anti-FLAG M2 agarose, Superose 6 …)) MHHLLEQSADMATALLAGEKLRELILPGAQDDKAGALAALLLQLKLELPFDRVVTIGTVLVPILLVTLVFTKNFAEEPIYCYTPHNFTRDQALYARGYCWTELRDALPGVDASLWPSLFEHKFLPYALLAFAAIMYVPALGWEFLASTRLTSELNFLLQEIDNCYHRAAEGRAPKIEKQIQSKGPGITEREKREIIENAEKEKSPEQNLFEKYLERRGRSNFLAKLYLARHVLILLLSAVPISYLCTYYATQKQNEFTCALGASPDGAAGAGPAVRVSCKLPSVQLQRIIAGVDIVLLCVMNLIILVNLIHLFIFRKSNFIFDKLHKVGIKTRRQWRRSQFCDINILAMFCNENRDHIKSLNRLDFITNESDLMYDNVVRQLLAALAQSNHDATPTVRDSGVQTVDPSAN", "values": [{"measurement": "stoichiometry N", "value": 7}]}
